From patent publication US20240117047A1 (University of California, published 2024)

B1: UC-103 (antibody, V domains shown)
VH: EIQLQQSGPVLVKPGASVKVSCKASGYAFTAYNIHWVRQSHGKRLEWIGSFDPYDGGSSYNQKFKDKATLTVDKSSTTAYMHLNSLTSEDSAVYYCARGWYYFDYWGHGTTLTVSS
VL: DVQITQSPSYLAASPGETITINCRASKSISKYLAWYQEKPGKTNKLLIYSGSTLQSGIPSRFRGSGSGTDFTLTISSLEPEDFAMYYCQQHDESPYTFGEGTKLEIKR
notes: Mouse-derived anti-hROR1 mAb, detected with anti-mouse IgG; also called UC-103 mAb
B2: UC-101 (antibody, V domains shown)
VH: EVQLLETGGGLVQPGGSRKLSCVASGFSFSSYGMHWVRQAPEKGLEWVAYIGGTSNTIYFADTVKGRFTISRDNAKNTLFLQMASLRSEDTAMYYCARTNLLGMDYWGQGTSVTVSS
VL: QIVLTQSPTIMSASPGEKVTMTCSASSSVSDMYWYQQKPGSSPRLLIYDTSNLASGVPVRFSGSGSGTSYSLTISRMEAEDAATYYCQQWISYTFGGGTKLEIKR
notes: Mouse-derived anti-hROR1 mAb, detected with anti-mouse IgG; also called UC-101 mAb
B3: UC-104 (antibody, V domains shown)
VH: EVQLLETGGGLVQPGGSRKLSCAASGFTFSNYGMHWVRQAPGKGLEWVAHISRYSDTIYYADAVKGRFTISRDNAKNTLFLQMTTLRSEDTAIYYCTSAMDYWGQGTSVTVSS
VL: DIQMTQTTSSLSASLGDRVTISCRASQDISNYLNWFQQKPDGTIKLLIYYTSRLHSGVPSRFSGSGSGTDYSLTISNLEQEDIATYFCQQGNTLPFTFGSGTKLEIKR
notes: Mouse-derived anti-hROR1 mAb, detected with anti-mouse IgG; also called UC-104 mAb
B4: UC-105 (antibody, V domains shown)
VH: EVKLVESGGGLVQPGGSRKLSCAASGFTFSSYGMHWIRQTPDKGLEWVAYISSNSDHIFYTDTVKGRFTISRDNAKNTLFLQMTSLRSEDTAMYYCASRMDYWGQGTSVTVSS
VL: DIQMTQTTSSLSASLGDRVTISCRASQDISNHLNWYQQKPDGTVKLLIYYTSRLHSGVPSRFSGSGSGTDYSLTISNLEQGDIATYFCQQGSTLPYTFGGGTKLEIKR
notes: Mouse-derived anti-hROR1 mAb, detected with anti-mouse IgG
B5: UC-102 (antibody, V domains shown)
VH: DVHLQESGPGLVKPSQSLSVTCTVTGYSITGSYSWNWIRQFPGNKLEWMGYIHSSGTTNYNPSLKSRISFTRDTSKNQLFLQLNSVTTEDTATYYCTRGFAYWGQGTLVTVSA
VL: NIVMTQSPSSMSASLGDRITITCQATQDIVKNLNWYQQKPGKPPSFLIYYTTELAEGVPSRFSGSGSGSDYSLTISNLESEDFADYYCLQFYEFPPTFGAGTKLELKR
notes: Mouse-derived anti-hROR1 mAb, detected with anti-mouse IgG; also called UC-102 mAb
B6: UC-106 (antibody, V domains shown)
VH: QIQLVQSGPELKKPGETVKISCKASGYTFTYYPIHWVKQAPGKGLKWMGWINTYSGVPTYADDFKGRFAFSLETSANTAYLQINNLRNEDMATYFCARGDSSLFDYWGQGTTLTVSS
VL: GHQMTQSPSSLSASLGERVSLTCRASQEISGYLIWLQQKPDGTIKRLIYAASTLNSGVPKRFSGSRSGSDYSLTISSLESEDFADYYCLQYTSYPLTFGAGTKLELKR
notes: as for B4
B7: UC-107 (antibody, V domains shown)
VH: QIQLVQSGPELKKPGETVKISCKASGYTFTNYPIHWVKQAPGKGLKWMGWINTYSGVPTYADDFKGRFAFSLETSANTAYLQLNNLRNEDMATYFCARGDSSLFDYWGQGTTLTVSS
VL: DVQMIQSPSSLSASLGERVSLTCRASQEISGYLIWLQQKPDGTITRLIYAASTLDSGVPKRFSGSRSGSDYSLTISSLESEDFADYYCLQYTSYPLTFGAGTKLELKR
notes: Mouse-derived anti-hROR1 mAb, detected with anti-mouse IgG; also called UC-107 mAb

Assays:
[1] = target: T1, extracellular domain of human ROR1 (human, UniProt Q01973 30-406); assay: ELISA screening
T1 construct: also called hROR1; hROR1 extracellular recombinant protein
T1 sequence (Q01973 30-406 limits assumed): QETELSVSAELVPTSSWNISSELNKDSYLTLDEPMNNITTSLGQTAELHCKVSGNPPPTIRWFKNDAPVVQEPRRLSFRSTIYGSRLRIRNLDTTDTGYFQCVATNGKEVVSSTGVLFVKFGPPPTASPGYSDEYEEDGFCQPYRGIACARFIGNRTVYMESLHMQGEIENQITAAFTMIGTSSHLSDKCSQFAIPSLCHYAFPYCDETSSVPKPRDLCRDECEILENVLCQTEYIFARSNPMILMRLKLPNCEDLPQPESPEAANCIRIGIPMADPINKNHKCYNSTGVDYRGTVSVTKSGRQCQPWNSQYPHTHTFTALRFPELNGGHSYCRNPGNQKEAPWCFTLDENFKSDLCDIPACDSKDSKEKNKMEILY

[2] = target: T2, hROR1 with a single amino acid substitution at position 138 (glutamic acid to lysine) (human, UniProt Q01973 30-406); assay: binding to point-mutated hROR1
T2 construct: Recombinant mutant of the hROR1 extracellular domain; also called hROR1 E138K
T2 sequence (Q01973 30-406 E138K limits assumed): as the sequence (Q01973 30-406 limits assumed) above, with E109K counted along it

[3] = target: T3, extracellular domain of mouse ROR1 (mouse, UniProt Q9Z139 30-406); assay: blot of recombinant protein, non-denaturing gel
T3 construct: also called mROR1; mROR1 protein
T3 sequence (Q9Z139 30-406 limits assumed): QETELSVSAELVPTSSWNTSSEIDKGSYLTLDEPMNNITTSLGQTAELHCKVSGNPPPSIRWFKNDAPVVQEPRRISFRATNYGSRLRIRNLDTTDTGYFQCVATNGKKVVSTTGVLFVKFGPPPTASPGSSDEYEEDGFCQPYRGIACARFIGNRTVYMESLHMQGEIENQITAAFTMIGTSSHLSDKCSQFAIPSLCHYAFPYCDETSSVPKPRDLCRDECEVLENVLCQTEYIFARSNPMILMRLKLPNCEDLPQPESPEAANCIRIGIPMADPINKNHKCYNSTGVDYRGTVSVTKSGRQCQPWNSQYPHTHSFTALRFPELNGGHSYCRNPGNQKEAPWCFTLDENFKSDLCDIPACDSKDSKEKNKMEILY
Text: (§1) Schematics of the chimeric constructs of the extracellular portion of ROR1 used to map the domain of hROR1 bound by each of the mAb in this disclosure. The dark regions of each construct indicate hROR1, light portions denote regions of mROR1, and hatched portions indicate deleted regions. Arrows mark the boundaries between the mouse and hROR1 regions for constructs #5, #6, #13 and #14, which depict the first 160 amino acids of the extracellular region that includes the Ig-like domain. The amino acids that differ between human and mROR1 are indicated by the single letter abbreviation at that position. (B) Each of these recombinant proteins were separated in non-denaturing polyacrylamide gel, transferred onto nylon, probed with the anti-hROR1 mAb indicated on the left, and detected with an anti-mouse IgG antibody conjugated with horse radish peroxidase. […] None of the antibody bind to mROR1.

[4] = target: T1, extracellular domain of human ROR1; assay: blot, non-denaturing gel
Text: as §1

[5] = target: T4, hROR1 with a single amino acid substitution at position 346 (threonine to serine) (human, UniProt Q01973 30-406); assay: binding to point-mutated hROR1; blot in FIG. 6
T4 construct: Recombinant mutant of the hROR1 extracellular domain; also called hROR1 T346S
T4 sequence (Q01973 30-406 T346S limits assumed): as the sequence (Q01973 30-406 limits assumed) above, with T317S counted along it
Text: Neither of the antibody reacts with mROR1 protein. […] We generated recombinant hROR1 proteins having either the mouse or human amino acid residue at this position only.

[6] = target: T4, hROR1 with a single amino acid …; assay: binding to point-mutated hROR1

Binder	binding result [1]	binding result [2]	binding result [3]	binding result [4]	binding result [5]	binding result [6]
B1	binds	no binding	no binding	–	–	–
B2	binds	no binding	no binding	–	–	–
B3	binds	no binding	no binding	–	–	–
B4	binds	no binding	no binding	–	–	–
B5	binds	no binding	no binding	–	–	–
B6	–	–	no binding	binds	no binding	–
B7	binds	–	no binding	–	–	no binding
